From PMC4051505, “Crystal structure of human CRMP-4: correction of intensities for lattice-translocation disorder” (Acta Crystallographica Section D: Biological Crystallography, 2014)

B1: truncated human CRMP-4 (CRMP-4 ΔC), residues 13-490 (domain or fragment)
chain: not shown
notes: CRMP-4 (DPYSL3), human, residues 13-490 of NP_001378.1; The His tag was removed with TEV protease; A serine from the TEV cleavage site is visible in chains C and D of the structure; Judging from the primer, Ser-Met probably remains before residue 13; Tetramer in the crystal, lower oligomers in solution; also called CRMP-4 ΔC (13-490); source: E. coli BL21(DE3)pLysS, purified (Ni-NTA, TEV …)
B2: human CRMP-4 (collapsin response mediator protein 4), full-length, residues 1-570 (natural protein)
chain: not shown
notes: CRMP-4 (DPYSL3), human, residues 1-570 of NP_001378.1; only residues 12-496/497 (crystal form A) or 12-499 (form B) are resolved in the electron density; The vector pNIC28-Bsa4 extends the coding region by 23 N-terminal residues (hexahistidine tag and TEV site); The tag was deliberately not cleaved for the full-length protein; Homotetramer in both crystal forms and in solution; also called …

Assays:
[1] = biological target: the molecule itself; experiment: crystal structure; CRMP-4 ΔC (13-490), space group P21; 30%(w/v) PEG 3350, 100 mM sodium tartrate, 100 mM bis-tris propane pH 6.5; protein 18 mg/ml; data at 100 K
[2] = biological target: the molecule itself; experiment: crystal structure; CRMP-4 (1-570) crystal form A, space group P21, twinned; 15%(w/v) PEG 6000, 100 mM Na HEPES pH 7.5, 100 mM KCl; protein 15 mg/ml; data at 100 K

| Protein | stoichiometry N [1] | stoichiometry N [2] |
| --- | --- | --- |
| B1 | 4 |  |
| B2 |  | 4 |
